The chains are these.
B1: LINE1-full (parent)
chain: UACGUAGGUGGUUUUCCCCUGAUAGUGCUAAGGGGGCCUGGAAGUUUGGACUGGGCAGAGCUCAACACAGCGUGGCAAAGUGGCUGUGGCUAGACUGCCUCUCUGGAUUCCUCGUCACUCAGCAGGGCAUCUCUGAGAGAAAUGCC

Variants of B1 are the subject of this data set. Briefly: self-cleavage, relative activity (ratio to wild type); higher = more cleavage; in vitro, sequencing; the parent is a self-cleaving ribozyme.
Take UACGUAGGUGGUUUUCCCCCGAUAGUGCUAAGGGGGCCUGGAAGUUUGGACUGGGCAGAGCCCAACACAGCGUGGCAAAGUGGCUGUGGCUAGACUGCCUCUCUGGAUUCCUCGUCACUCAGCAGGGCAUCUCUGAGAGAAAUGCC [U20C U62C]: the self-cleavage was 0.1.

For UACGUAGGUGGUUUUCCCCCGAUAGUGCUAAGGGGGCCUGGAAGUUUGGACUGGGCAGAGCUCAACACAGCGUGGCAAAGUGGCUGAGGCUAGACUGCCUCUCUGGAUUCCUCGUCACUCAGCAGGGCAUCUCUGAGAGAAAUGCC [U20C U87A], the self-cleavage is 0.1.

Take UACGUAGGUGGUUUUCCCCCGAUAGUGCUAAGGGGGCCUGGAAGUUUGGACUGGGCAGAGCUCAACACAGCGUGGCAAAGUGGCUGCGGCUAGACUGCCUCUCUGGAUUCCUCGUCACUCAGCAGGGCAUCUCUGAGAGAAAUGCC [U20C U87C]: the self-cleavage is 0.24.

With UACGUAGGUGGUUUUCCCCCGAUAGUGCUAAGGGGGCCUGGAAGUUUGGACUGGGCAGAGCUCAACACAGCGUGGCAAAGUGGCUGUGGCUAGACCGCCUCUCUGGAUUCCUCGUCACUCAGCAGGGCAUCUCUGAGAGAAAUGCC [U20C U96C], the self-cleavage came out at 0.08.

Take UACGUAGGUGGUUUUCCCCCGAUAGUGCUAAGGGGGCCUGGAAGUUUGGACUGGGCAGAGCUCAACACAGCGUGGCAAAGUGGCUGUGGCCAGACUGCCUCUCUGGAUUCCUCGUCACUCAGCAGGGCAUCUCUGAGAGAAAUGCC [U20C U91C]: the self-cleavage amounted to 0.76.

Consider UACGUAGGUGGUUUUCCCCCGAUAGUGCUAAGGGGGCCUGGAAGUUUGGACUGGGCAGAGCUCAACACAGCGUGGCAAAGUGGCUGUGGCAAGACUGCCUCUCUGGAUUCCUCGUCACUCAGCAGGGCAUCUCUGAGAGAAAUGCC [U20C U91A], for which the self-cleavage turned out to be 0.55.

Consider UACGUAGGUGGUUUUCCCCCGAUAGUGCUAAGGGGGCCUGGAAGUUAGGACUGGGCAGAGCUCAACACAGCGUGGCAAAGUGGCUGUGGCUAGACUGCCUCUCUGGAUUCCUCGUCACUCAGCAGGGCAUCUCUGAGAGAAAUGCC [U20C U47A], for which the self-cleavage is 1.19.

Consider UACGUAGGUGGUUUUCCCCCGAUAGUGCUAAGGGGGCCUGGAAGUUUGGACUGGGCAGAGCUCAACACAGCGUGGCAAAGUGGCUGUGGCUAGACUGCCUCACUGGAUUCCUCGUCACUCAGCAGGGCAUCUCUGAGAGAAAUGCC [U20C U102A], for which the self-cleavage was 1.21.

Turning to UACGUAGGUGGUUUUCCCCCGAUAGUGCUAAGGGGGCCUGGAAGUUUGGACUGGGCAGAGCUCAACACAGCGUGGCAAAGUGGCUGUGGCUAGACUGCCUCCCUGGAUUCCUCGUCACUCAGCAGGGCAUCUCUGAGAGAAAUGCC [U20C U102C], the self-cleavage came to 1.25.

UACGUAGGUGGUUUUCCCCCGAUAGUGCUAAGGGGGCCUGGAAGUAUGGACUGGGCAGAGCUCAACACAGCGUGGCAAAGUGGCUGUGGCUAGACUGCCUCUCUGGAUUCCUCGUCACUCAGCAGGGCAUCUCUGAGAGAAAUGCC [U20C U46A]: the self-cleavage worked out at 0.85.

For UACGUAGGUGGUUUUCCCCCGAUAGUGCUAAGGGGGCCUGGAAGUGUGGACUGGGCAGAGCUCAACACAGCGUGGCAAAGUGGCUGUGGCUAGACUGCCUCUCUGGAUUCCUCGUCACUCAGCAGGGCAUCUCUGAGAGAAAUGCC [U20C U46G], the self-cleavage stood at 1.52.

Turning to UACGUAGGUGGUUUUCCCCCGAUAGUGCUAAGGGGGCCCGGAAGUUUGGACUGGGCAGAGCUCAACACAGCGUGGCAAAGUGGCUGUGGCUAGACUGCCUCUCUGGAUUCCUCGUCACUCAGCAGGGCAUCUCUGAGAGAAAUGCC [U20C U39C], the self-cleavage stood at 1.28.

With UACGUAGGUGGUUUUCCCCCGAUAGUGCUAAGGGGGCCAGGAAGUUUGGACUGGGCAGAGCUCAACACAGCGUGGCAAAGUGGCUGUGGCUAGACUGCCUCUCUGGAUUCCUCGUCACUCAGCAGGGCAUCUCUGAGAGAAAUGCC [U20C U39A], the self-cleavage was 1.48.

Consider UACGUAGGUGGUUUUCCCCCGAUAGUGCUAAGGGGGCCUGGAAGUUUGGACAGGGCAGAGCUCAACACAGCGUGGCAAAGUGGCUGUGGCUAGACUGCCUCUCUGGAUUCCUCGUCACUCAGCAGGGCAUCUCUGAGAGAAAUGCC [U20C U52A], for which the self-cleavage was 0.69.

For the variant UACGUAGGUGGUUUUCCCCCGAUAGUGCUAAGGGGGCCUGGAAGUUUGGACUGGGCAGAGCUCAACACAGCGUGGCAAAGUGGCUGUGGCUAGACUGCCACUCUGGAUUCCUCGUCACUCAGCAGGGCAUCUCUGAGAGAAAUGCC [U20C U100A], the self-cleavage was determined as 0.81.

Turning to UACGUAGGUGGUUUUCCCCCGAUAGUGCUAAGGGGGCCUGGAAGUUUGGACUGGGCAGAGCUCAACACAGCGUGGCAAAGUGGCUGUGGCUAGACUGCCCCUCUGGAUUCCUCGUCACUCAGCAGGGCAUCUCUGAGAGAAAUGCC [U20C U100C], the self-cleavage worked out at 1.69.

On to UACGUAGGUGGUUUUCCCCCGAUAGAGCUAAGGGGGCCUGGAAGUUUGGACUGGGCAGAGCUCAACACAGCGUGGCAAAGUGGCUGUGGCUAGACUGCCUCUCUGGAUUCCUCGUCACUCAGCAGGGCAUCUCUGAGAGAAAUGCC [U20C U26A], for which the self-cleavage was determined as 0.92.

Consider UACGUAGGUGGUUUUCCCCCGAUAGCGCUAAGGGGGCCUGGAAGUUUGGACUGGGCAGAGCUCAACACAGCGUGGCAAAGUGGCUGUGGCUAGACUGCCUCUCUGGAUUCCUCGUCACUCAGCAGGGCAUCUCUGAGAGAAAUGCC [U20C U26C], for which the self-cleavage came out at 1.26.

For the variant UACGUAGGUGGUUUUCCCCCGAUAGUGCCAAGGGGGCCUGGAAGUUUGGACUGGGCAGAGCUCAACACAGCGUGGCAAAGUGGCUGUGGCUAGACUGCCUCUCUGGAUUCCUCGUCACUCAGCAGGGCAUCUCUGAGAGAAAUGCC [U20C U29C], the self-cleavage came out at 1.27.

As for UACGUAGGUGGUUUUCCCCCGAUAGUGCAAAGGGGGCCUGGAAGUUUGGACUGGGCAGAGCUCAACACAGCGUGGCAAAGUGGCUGUGGCUAGACUGCCUCUCUGGAUUCCUCGUCACUCAGCAGGGCAUCUCUGAGAGAAAUGCC [U20C U29A], the self-cleavage was 0.62.
